From FireProtDB (doi:10.1021/bi00005a026)

B1: Subtilisin-chymotrypsin inhibitor-2A, P01053 (parent)
chain: MSSVEKKPEGVNTGAGDRHNLKTEWPELVGKSVEEAKKVILQDKPEAQIIVLPVGTIVTMEYRIDRVRLFVDKLDNIAQVPRVG

Variants of: B1
Details: Hordeum vulgare, pH 6.3, Thermal, Fluorescence, phosphate 10 mM, reversible: yes, structure 2CI2, whole UniProt chain shown; for ddG of mutation (higher = less stable): 46.6 °C

Variant: V39A
- ddG of mutation (higher = less stable): 2.01 kJ/mol
- Tm: 41.9 °C
- change of melting temperature, mutant - wild type (higher = more stable): -4.7 °C
- unfolding enthalpy (van 't Hoff): 126 kJ/mol

Variant: K38A
- ddG of mutation (higher = less stable): -0.962 kJ/mol
- Tm: 41.4 °C
- change of melting temperature, mutant - wild type (higher = more stable): -5.2 °C
- unfolding enthalpy (van 't Hoff): 146 kJ/mol

Variant: L52V
- ddG of mutation (higher = less stable): 2.09 kJ/mol
- Tm: 46.1 °C
- change of melting temperature, mutant - wild type (higher = more stable): -0.5 °C
- unfolding enthalpy (van 't Hoff): 156 kJ/mol

Variant: I49V
- ddG of mutation (higher = less stable): 4.64 kJ/mol
- Tm: 39.4 °C
- change of melting temperature, mutant - wild type (higher = more stable): -7.2 °C
- unfolding enthalpy (van 't Hoff): 116 kJ/mol

Variant: V54T
- ddG of mutation (higher = less stable): 4.31 kJ/mol

Variant: L52A
- ddG of mutation (higher = less stable): 9.92 kJ/mol
- Tm: 37.5 °C
- change of melting temperature, mutant - wild type (higher = more stable): -9.1 °C
- unfolding enthalpy (van 't Hoff): 178 kJ/mol

Variant: S32A E34A E35A
- ddG of mutation (higher = less stable): 6.99 kJ/mol

Variant: V71A
- ddG of mutation (higher = less stable): 8.16 kJ/mol
- Tm: 29.8 °C
- change of melting temperature, mutant - wild type (higher = more stable): -16.8 °C
- unfolding enthalpy (van 't Hoff): 140 kJ/mol

Variant: I50A
- ddG of mutation (higher = less stable): 8.87 kJ/mol

Variant: E34N
- ddG of mutation (higher = less stable): 2.93 kJ/mol
- Tm: 42.8 °C
- change of melting temperature, mutant - wild type (higher = more stable): -3.8 °C
- unfolding enthalpy (van 't Hoff): 151 kJ/mol

Variant: V54A
- ddG of mutation (higher = less stable): 2.64 kJ/mol
- Tm: 43.8 °C
- change of melting temperature, mutant - wild type (higher = more stable): -2.8 °C
- unfolding enthalpy (van 't Hoff): 169 kJ/mol

Variant: T23A
- ddG of mutation (higher = less stable): 3.56 kJ/mol
- Tm: 43.7 °C
- change of melting temperature, mutant - wild type (higher = more stable): -2.9 °C

Variant: I40V
- ddG of mutation (higher = less stable): 5.44 kJ/mol
- Tm: 31.8 °C
- change of melting temperature, mutant - wild type (higher = more stable): -14.8 °C
- unfolding enthalpy (van 't Hoff): 110 kJ/mol

Variant: S32A
- ddG of mutation (higher = less stable): 3.72 kJ/mol
- Tm: 38.2 °C
- change of melting temperature, mutant - wild type (higher = more stable): -8.4 °C
- unfolding enthalpy (van 't Hoff): 148 kJ/mol

Variant: F70L
- ddG of mutation (higher = less stable): 8.83 kJ/mol
- Tm: 32.5 °C
- change of melting temperature, mutant - wild type (higher = more stable): -14.1 °C
- unfolding enthalpy (van 't Hoff): 115 kJ/mol

Variant: K37A
- ddG of mutation (higher = less stable): 2.05 kJ/mol
- Tm: 34 °C
- change of melting temperature, mutant - wild type (higher = more stable): -12.6 °C
- unfolding enthalpy (van 't Hoff): 114 kJ/mol

Variant: I50V
- ddG of mutation (higher = less stable): -0.335 kJ/mol
- Tm: 48 °C
- change of melting temperature, mutant - wild type (higher = more stable): 1.4 °C
- unfolding enthalpy (van 't Hoff): 213 kJ/mol

Variant: K38G
- ddG of mutation (higher = less stable): 4.06 kJ/mol
- Tm: 35.8 °C
- change of melting temperature, mutant - wild type (higher = more stable): -10.8 °C
- unfolding enthalpy (van 't Hoff): 157 kJ/mol

Variant: L28A
- ddG of mutation (higher = less stable): 11.2 kJ/mol
- Tm: 24.1 °C
- change of melting temperature, mutant - wild type (higher = more stable): -22.5 °C
- unfolding enthalpy (van 't Hoff): 145 kJ/mol

Variant: E34A E35A
- ddG of mutation (higher = less stable): 3.18 kJ/mol

Variant: I77V
- ddG of mutation (higher = less stable): -0.795 kJ/mol
- Tm: 47.7 °C
- change of melting temperature, mutant - wild type (higher = more stable): 1.1 °C
- unfolding enthalpy (van 't Hoff): 145 kJ/mol

Variant: K44A
- Tm: 40.8 °C
- change of melting temperature, mutant - wild type (higher = more stable): -5.8 °C
- unfolding enthalpy (van 't Hoff): 103 kJ/mol
